Experimental data as given in the supplement of paper PMC10567573.
± gives the standard deviation.

Assay: protein stability index of a GFP-peptide fusion (GPS, HEK-293T) (PSI 1-6); higher = more stable
[1] = treatment: DMSO, c terminus: a fixed tail appended
[2] = treatment: MLN4924 1 uM, 8 h, c terminus: a fixed tail appended
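Further: 24-mer peptide tiles fused after GFP, lentivirally expressed, FACS-sorted into six equal bins by GFP/DsRed ratio, decoded by Illumina sequencing, PSI is the read-weighted mean bin number.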

Sequence	protein stability index [1]	protein stability index [2]	protein stability index (treatment: DMSO, c terminus: native)	protein stability index (treatment: MLN4924 1 uM, 8 h, c terminus: native)
YGYLPEDKVLGTFEFDETSFWNSS [KLHDC2]	2.66 ± 0.25	2.98 ± 0.34	–	–
ESAGPSRAVRQSVTSFPDADAFHH [EMD]	4.33 ± 0.86	4.44 ± 0.18	–	–
DSFPEGPERLHAIKEQLIQEGLLD [HDAC6]	4.94 ± 0.49	4.76 ± 0.27	–	–
MEEDIDTRKINNSFLRDHSYATEA [PPP2R2B]	4.77 ± 0.19	4.72 ± 0.12	–	–
PIKLELLEPKANLQAALQVLELHH [VPS39]	2.36 ± 0.41	2.41 ± 0.22	–	–
ECIYIIEAAPRQCIELYFDEKYSI [NETO1]	3.08 ± 0.46	2.95 ± 0.32	–	–
QCLEDLVNHYSEVADGLCCVLTTP [SLA]	2.11 ± 0.39	2.27 ± 0.36	–	–
QKPRGLEGGVLRGSKLEKGHLRGP [ZSWIM9]	3.98 ± 0.63	3.82 ± 0.54	–	–
PAGAGPSPTFPALGIGMDSCVIPL [SEPHS2]	3.14 ± 0.43	3.26 ± 0.34	–	–
HTEVVRDLTFAPDGSLILVSASRD [WSB1]	3.45 ± 0.054	3.53 ± 0.27	–	–
DAIRGKVGYTRGLHVWQITWAMRQ [SPSB1]	2.38 ± 0.54	2.36 ± 0.42	–	–
VDGPDLEMLTGQERVALANRKREC [FKBP8]	4.96 ± 0.16	5.14 ± 0.2	–	–
AISLTKCLESTKLLADLKKCGDLE [MIA2]	2.64 ± 0.57	2.79 ± 0.69	–	–
MSQRNLNAKTEQGPTGVTMTSNPI [CDK11A]	4.53 ± 0.23	4.64 ± 0.17	–	–
GTNEALLRQLRELEEQFALEAGGY [PRPH]	4.07 ± 0.24	3.92 ± 0.26	–	–
GNIIAHASTTRLYLRKGRGETRIC [RAD51]	3.11 ± 0.44	3.16 ± 0.34	–	–
PTELWPQEAVPLGLGLEDADWTQG [TEX19]	4.56 ± 0.22	4.59 ± 0.22	–	–
DINREQLNDIFHLLKSHTNVLSVN [TPH1]	2.18 ± 0.17	2.27 ± 0.23	–	–
FPAMLFSSMLTGILWDTLLRLCAW [POMT2]	3.23 ± 0.51	3.09 ± 0.12	–	–
THFASQEFFSANAISDQLLGAGSD [ADAMTSL2]	4.27 ± 0.23	4.23 ± 0.25	–	–
HRRRSRERGPYRTRKHAHHCHKRR [CLK3]	4.49 ± 0.31	4.57 ± 0.25	–	–
MREQYEAMAERNRRDAEEWFHAKS [KRT13]	4.81 ± 0.28	4.75 ± 0.17	–	–

Sequence	protein stability index [1]	protein stability index [2]	protein stability index (treatment: DMSO, c terminus: native)	protein stability index (treatment: MLN4924 1 uM, 8 h, c terminus: native)
GCWAWPLAGLSVGRSSLTACSLPL [PXN]	1.99 ± 0.86	2.15 ± 0.82	–	–
VSLDISPDLPFQIKPSENHYSLLT [PCDHGC5]	2.22 ± 0.31	2.46 ± 0.17	–	–
ITNQEELWKMKPRRNLEEDDYLHK [STEAP1]	4.22 ± 0.41	4.02 ± 0.26	–	–
INQLTFIMDANQTYLVSERLEREE [FAF2]	3.17 ± 0.15	3.15 ± 0.21	–	–
ALAHCHQHGLVLRDLKLCRFVFAD [TRIB3]	2.44 ± 0.43	2.23 ± 0.23	–	–
FSLMVTFPDVPLGIFLFCVCVIAI [TMEM175]	3.37 ± 0.5	3.14 ± 0.31	–	–
INCKGRSKSNLGWTPLHLACYFGH [OSBPL1A]	2.63 ± 0.32	2.28 ± 0.32	–	–
KEAVAALPPDVTTQSVMGFDPLPP [TCF25]	4.79 ± 0.29	4.89 ± 0.26	–	–
WVLLFTPCSFVCWYRPMYKAFRSD [SCAMP3]	2.92 ± 0.31	3 ± 0.37	–	–
NSLWKKNKTICKERLQILCFFLLI [NLN]	2.9 ± 0.4	2.4 ± 0.42	–	–
TIENILDNDPRDLIGDFSKGYLFH [CDC25A]	2.58 ± 0.38	2.69 ± 0.19	–	–
NNWDKWMAKKHKKIRLRCQKGIPP [TBC1D10A]	2.74 ± 0.24	3.1 ± 0.12	–	–
KRKMHLVFEYCDHTLLNELERNPN [CDKL4]	2.26 ± 0.46	2.51 ± 0.51	–	–
LVKHKRIHSREKRGDSVKVENPST [ZNF649]	4.41 ± 0.32	4.54 ± 0.48	–	–
VAEITKQLPPVVPVSKPGALRRSL [TCAP]	5.15 ± 0.15	5.2 ± 0.29	–	–
AKPRATWTLKLDGNLQLDCLAQGW [RTP4]	2.17 ± 0.24	2.33 ± 0.57	–	–
GGQDGLGAPKDQQQPPQQQPSQQQ [KLHL14]	5.36 ± 0.5	5.4 ± 0.56	–	–
SLFCYEDQEAVCLICAISHTHRAH [TRIM39]	2.15 ± 0.19	2.19 ± 0.2	–	–
DKVRALEEANADLEVKIRDWYQRQ [KRT16]	4.01 ± 0.11	4.04 ± 0.27	–	–
LTVLQRLDVWLSGGNDLCVWNRKL [WDR41]	2.17 ± 1	2.39 ± 0.32	–	–
DGLVGMAIVGGMALGVAGLAGLIG [FIS1]	2.33 ± 0.6	2.09 ± 0.5	–	–
ITAPTEVEVMDETNCQKVLNMWCC [CSNK1G3]	2.84 ± 0.29	2.98 ± 0.29	–	–

Sequence	protein stability index [1]	protein stability index [2]	protein stability index (treatment: DMSO, c terminus: native)	protein stability index (treatment: MLN4924 1 uM, 8 h, c terminus: native)
YLAFAASNVRGSLNVNLNSVVLRR [DUSP5]	2.41 ± 0.24	2.69 ± 0.24	–	–
MKQLQQQQHSDKTSLQGLTGTPLV [ISL2]	4.01 ± 0.35	4.2 ± 0.23	–	–
DKGEKLLRCKLAAFYRLADLFGWS [ADD1]	2.59 ± 0.64	2.28 ± 0.24	–	–
PPRKSGSFHSSGEKQKQPRWREGT [PBXIP1]	4.4 ± 0.068	4.38 ± 0.3	–	–
EEAPELDEAELDYLMDVLVGTQAL [SERTAD1]	4.05 ± 0.25	4.22 ± 0.16	–	–
QENEEKEQVANKGEPLALPLDAGE [BEX1]	5.59 ± 0.27	5.48 ± 0.56	–	–
KDREYTDIIRKQVLGTKVDAERDG [CDC34]	5.08 ± 0.21	4.99 ± 0.18	–	–
PKEQLSTSFQWVTKWVDYSNKYGF [PLK2]	2.29 ± 0.45	2.46 ± 0.48	–	–
EIDIFNPQTVGVGRARFTTYEVRM [SNX12]	2.36 ± 0.069	2.57 ± 0.44	–	–
KTMQSEETRVWHRRDGKWQNVHFH [CAMK2D]	2.85 ± 0.15	3.14 ± 0.16	–	–
WIRICRPGSIIGPQQHFLEEKQAS [CDC14A]	2.18 ± 0.46	2.36 ± 0.48	–	–
FSEETEKKFEHFSGLLNNQLSPQ [LOXL2]	–	–	3.57 ± 0.72	4.61 ± 0.37
REIMEKFGKQPVSLPARRLKLRGR [CPXM2]	3.64 ± 0.16	3.65 ± 0.088	–	–
FQGSMRIFTKKLPHPDLPAEEKEQ [USP39]	2.55 ± 0.75	3.77 ± 0.69	–	–
WNQILDPWVYILLRKAVLKNLYKL [PTGFR]	2.7 ± 1.1	2.03 ± 0.93	–	–
LLEESDGEGEPGQGEGPEAGDAEV [NOP53]	5.62 ± 0.22	5.61 ± 0.14	–	–
WMEILILGVVYRSLSFEDELVYAD [ESRRG]	3.77 ± 0.27	2.68 ± 0.25	–	–
PGPSWVRGSGPSVLSRLQDAAVVR [ALKBH7]	3.58 ± 0.37	3.78 ± 0.23	–	–
DRDGTINLSEFQHVISRSPDFASS [CIB1]	4.31 ± 0.28	4.31 ± 0.24	–	–
EPPPPGKHSNKKVMRTKSSEKAAN [CPXM2]	5.09 ± 0.23	5.14 ± 0.81	–	–
YPDAEDPQLGLDGPGEPDVRDGFS [PSD2]	5.51 ± 0.31	5.46 ± 0.084	–	–
